Reference: the supplement of paper PMC7125110
± gives the standard error. Fewer inactive variants are shown than the library holds.

B1: glmS ribozyme (parent)
chain: AUAAAAGCGCCAGAACUACAGAAAUGUAGUUGACGAGGAGGAGGUUUAUCGAAUUUUCGGCGGAUGCCUCCAAA

Key:
Details in all cases: with glucosamine-6-phosphate
glucosamine-6-phosphate [1] = variants of: B1; experiment: self-cleavage kobs at 40 uM GlcN6P; higher = faster cleavage; RNA array
In short: (§1)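 kcat and KM were obtained from weighted Michaelis–Menten fits across concentrations of kobs values. Those came from one- or two-exponential decay fits to per-tile medians normalised to baseline and to non-cleaving reference variants. The variants were barcoded ribozymes transcribed in situ by E. coli RNA polymerase on sequenced MiSeq chips and tracked through a hybridised Cy3 probe at 37 °C, with 40 μM to 10 mM glucosamine-6-phosphate in HEPES/KCl/Mg(OAc)2 buffer flowed in.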

glucosamine-6-phosphate [2] = variants of: B1; experiment: self-cleavage kobs at 640 uM GlcN6P; higher = faster cleavage; RNA array
In short: as §1

glucosamine-6-phosphate [3] = variants of: B1; experiment: self-cleavage kobs at 2500 uM GlcN6P; higher = faster cleavage; RNA array
In short: as §1

glucosamine-6-phosphate [4] = variants of: B1; experiment: self-cleavage kobs at 10000 uM GlcN6P; higher = faster cleavage; RNA array
In short: as §1

glucosamine-6-phosphate [5] = variants of: B1; experiment: self-cleavage kobs at 160 uM GlcN6P; higher = faster cleavage; RNA array
In short: as §1

Variant	self-cleavage kobs at 40 uM GlcN6P (glucosamine-6-phosphate [1]) [s⁻¹]	self-cleavage kobs at 640 uM GlcN6P (glucosamine-6-phosphate [2]) [s⁻¹]	self-cleavage kobs at 2500 uM GlcN6P (glucosamine-6-phosphate [3]) [s⁻¹]	self-cleavage kobs at 10000 uM GlcN6P (glucosamine-6-phosphate [4]) [s⁻¹]	self-cleavage kobs at 160 uM GlcN6P (glucosamine-6-phosphate [5]) [s⁻¹]
G35A U47A U57C G66A	< 1e-05	–	–	–	–
G35C U49A	< 1e-05	< 1e-05	< 1e-05	–	–
A36C U54C A64U C67G	< 1e-05	–	–	–	–
C34A G44U G51C	< 1e-05	< 1e-05	< 1e-05	< 1e-05	–
G35U A48C	< 1e-05	–	< 1e-05	< 1e-05	–
G35C A42U U45C G59U	< 1e-05	–	–	–	–
G35U A42G	< 1e-05	< 1e-05	< 1e-05	< 1e-05	< 1e-05
C34G A36G G37A A42U G51C C67U	< 1e-05	–	< 1e-05	–	–
A33U A36G G41C A53G	< 1e-05	–	–	< 1e-05	–
A36G A52G	< 1e-05	< 1e-05	–	< 1e-05	< 1e-05
C34A G41U G62A	< 1e-05	–	–	< 1e-05	–
A33G G51U	< 1e-05	< 1e-05	–	< 1e-05	–
A33C U55C U57C	< 1e-05	–	–	< 1e-05	–
G35A A42G	< 1e-05	< 1e-05	< 1e-05	< 1e-05	< 1e-05
A33G A64U	< 1e-05	–	–	< 1e-05	–
G35C C58A C71A	< 1e-05	–	–	< 1e-05	–
A33U G51C G60U G63U	< 1e-05	–	–	–	–
G35A G66U	< 1e-05	–	–	–	< 1e-05
A33G G40U G43A U49A C58U	< 1e-05	–	–	< 1e-05	–
A33U U49A C71U	< 1e-05	–	–	< 1e-05	–
C34A	< 1e-05	< 1e-05	< 1e-05	–	< 1e-05
C34G	< 1e-05	< 1e-05	< 1e-05	< 1e-05	< 1e-05
G35A A48C	< 1e-05	< 1e-05	< 1e-05	< 1e-05	< 1e-05
C34G G62U	< 1e-05	–	< 1e-05	< 1e-05	–
C34G G62A	< 1e-05	< 1e-05	< 1e-05	< 1e-05	–

Variant	self-cleavage kobs at 40 uM GlcN6P (glucosamine-6-phosphate [1]) [s⁻¹]	self-cleavage kobs at 640 uM GlcN6P (glucosamine-6-phosphate [2]) [s⁻¹]	self-cleavage kobs at 2500 uM GlcN6P (glucosamine-6-phosphate [3]) [s⁻¹]	self-cleavage kobs at 10000 uM GlcN6P (glucosamine-6-phosphate [4]) [s⁻¹]	self-cleavage kobs at 160 uM GlcN6P (glucosamine-6-phosphate [5]) [s⁻¹]
C34U C58G U65G C70A	0.000236 ± 8.2e-05	0.000187 ± 7.4e-05	–	0.000376 ± 0.00015	–
C34A C68U	< 1e-05	< 1e-05	< 1e-05	< 1e-05	< 1e-05
G35U C58U	< 1e-05	–	< 1e-05	< 1e-05	< 1e-05
A33U C50A C68G	4.36e-05 ± 2e-05	–	–	–	–
A36C G62A	< 1e-05	–	< 1e-05	–	< 1e-05
A36C G62C	< 1e-05	–	–	< 1e-05	< 1e-05
A36C A39G G60U	< 1e-05	< 1e-05	< 1e-05	–	–
A36C C58A U65A C68G	0.000139 ± 4.3e-05	–	0.000116 ± 2.7e-05	–	–
C34U A64C	< 1e-05	–	–	< 1e-05	< 1e-05
A33U G38U G40U	< 1e-05	–	–	–	–
A33G A36G A39C U45A	< 1e-05	–	< 1e-05	< 1e-05	< 1e-05
A33U A48G A53U U57C	< 1e-05	–	–	< 1e-05	–
A33U A39U G44C G63C C67G	< 1e-05	–	–	< 1e-05	–
C34A G37C G60U	< 1e-05	–	–	< 1e-05	–
C34A A52G	< 1e-05	< 1e-05	< 1e-05	< 1e-05	< 1e-05
A36C G51A	< 1e-05	–	–	< 1e-05	–
C34A G41C A53G U54A U56G	< 1e-05	–	–	< 1e-05	–
G35A A36U G37U A39G U54C C68U	5.13e-05 ± 2.2e-05	–	–	–	–
G35U U65G	< 1e-05	< 1e-05	< 1e-05	< 1e-05	< 1e-05
G35U A64C C68A	< 1e-05	–	–	–	–
G35C G63U C71A	< 1e-05	–	< 1e-05	< 1e-05	–
A33U A36C G59C	< 1e-05	–	–	< 1e-05	–
A33G G63A U65G	< 1e-05	–	–	–	–
G35C C50U C70G	< 1e-05	–	–	–	–
